Key:
J1 mESCs = experiment: RA-induced differentiation, expression of Tip60/p400 and SRCAP complex genes (qRT-PCR, Western blot); format: cell-based, mouse; details: 1 μM RA, ES cell medium without LIF; vs day 0; technical duplicate
Description: mESCs were plated in 96-well ultra-low attachment round bottom plates (Corning) at 1000 cells/well in ES cell medium without LIF. Media was changed every other day before day 8 and daily thereafter. For RA treatment, mESCs seeded on gelatin-coated dishes were treated with 1 μM RA in ES cell medium without LIF. Undifferentiated mESCs cultured with LIF in gelatin-coated dishes, are considered as EB and RA day 0.
Total RNA extraction, reverse transcription and quantitative real-time PCR (qPCR) were performed as previously described. Gene expression values were calculated by normalization to Actb using the comparative CT method. Primers used in the study are listed in Supplementary Table S6.

[1] = target: Gas41 YEATS domain (aa 15–159) Y74A (human) (UniProt O95619); experiment: ITC; GAS41 YEATS (15-159) WT or mutants titrated with H3(1-34)K27ac peptide; 15 °C; 20 mM Tris-HCl pH 7.5, 500 mM NaCl, 5% glycerol, 2 mM β-mercaptoethanol; One Set of Binding Sites model
[2] = target: Gas41 YEATS mutants with residues H71, S73, Y74 and F96 replaced with alanine; experiment: as above
[3] = target: Gas41 YEATS domain (aa 15–159) with E95 mutated (human) (UniProt O95619); experiment: as above
[4] = target: Gas41 YEATS domain (aa 15–159) S73A (human) (UniProt O95619); experiment: as above

Row | fold reduction of binding against wild type [1] [fold] | fold reduction of binding against wild type [2] [fold] | fold reduction of binding against wild type [3] [fold] | fold reduction of binding against wild type [4] [fold] | Compound | change in gene expression of Tip60/p400 and SRCAP complex components (J1 mESCs)
1 |  |  |  |  | CC1=C(/C=C/C(C)=C/C=C/C(C)=C/C(=O)O)C(C)(C)CCC1 [RA, retinoic acid] | almost all the genes were downregulated
2 | 69 | 94 | 7 | 14 | H3 (1–34) K27ac peptide (from UniProt P68431 2-35) | 
